# B1: S. aureus mechanosensitive channel of large conductance (SaMscL) (natural protein, UniProt Q6G9L1 1-120, looked up)
# chain: MLKEFKEFALKGNVLDLAIAVVMGAAFNKIISSLVENIIMPLIGKIFGSVDFAKEWSFWGIKYGLFIQSVIDFIIIAFALFIFVKIANTLMKKEEAEEEAVVEENVVLLTEIRDLLREKK
# notes: MscL, large-conductance mechanosensitive channel of S. aureus, GenBank CAG43065; printed monomer mass 14.4 kDa; the printed GenBank entry holds; Pentamer in Triton X-100 and C8E5 and in vivo; tetramer in LDAO (copies would then be 4); Expressed from two vectors (pET21a, pB10) with no difference reported; also called S. aureus MscL; source: E. coli PB116 (pET21a), purified (DM extraction, Ni-NTA, …)
# B2: L10C/M91C SaMscL (natural protein)
# chain: MLKEFKEFACKGNVLDLAIAVVMGAAFNKIISSLVENIIMPLIGKIFGSVDFAKEWSFWGIKYGLFIQSVIDFIIIAFALFIFVKIANTLCKKEEAEEEAVVEENVVLLTEIRDLLREKK
# notes: also called L10C/M91C protein; source: bacterial cultures induced with 1 mM IPTG, in the cell membrane (cells lysed in sample buffer)
# Key:
# [1] = molecular target: L10C/L89C SaMscL (S. aureus) (UniProt Q6G9L1); assay: cross-linking; in vivo disulfide trapping of double-cysteine mutants in the cell membrane; cells osmotically shocked (water with 1.5 uM copper phenanthroline, 15 min, 37 C) or mock shocked; non-reducing SDS-PAGE, anti-Penta His Western blot
# [2] = molecular target: the molecule itself; assay: SEC-MALS; SaMscL purified in LDAO, then exchanged into C8E5 and measured the following day
# [3] = molecular target: the molecule itself; assay: cross-linking; purified protein in LDAO (2.1 mM final); 5 ug protein with 2 mM DSS on ice for 5 min; anti-Penta His Western blot
# [4] = molecular target: the molecule itself; assay: cross-linking; in vivo disulfide trapping of double-cysteine mutants in the cell membrane; cells osmotically shocked (water with 1.5 uM copper phenanthroline, 15 min, 37 C) or mock shocked; non-reducing SDS-PAGE, anti-Penta His Western blot
molecule,measurement,setting,value
L10C/L89C SaMscL (from UniProt Q6G9L1 1-120) (natural protein),stoichiometry N,[1],5
B1,stoichiometry N,[2],5
same,stoichiometry N,[3],4
B2,stoichiometry N,[4],5

# — PMC2998437, “S. aureus MscL Is a Pentamer In Vivo but of Variable Stoichiometries In Vitro: Implications for Detergent-Solubilized Membrane Proteins” (PLoS Biology, 2010)
